B1: CPEB3 Ribozyme (parent)
chain: UAACAGGGGGCCACAGCAGAAGCGUUCACGUCGCAGCCCCUGUCAGAUUCUGGUGAAUCUGCGAAUUCUGCUGUAUAUCUC

This data set covers variants of B1. Nature of the data set: self-cleavage, relative activity (ratio to wild type); higher = more cleavage; in vitro, sequencing. The gist of the method:
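After error-prone PCR and barcoding, CPEB3 ribozyme mutant libraries were transcribed with T7 RNA polymerase at 37°C for 5 hours, then given 15 min with DNase I before an EDTA stop, and they cleaved during both steps. Reverse transcription with template switching preceded Illumina sequencing. Relative activity divides a variant's cleaved/total read fraction by the unmutated ribozyme's. At least 5 reads were required per variant, and three batches were averaged.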
Take U25C A57C: the self-cleavage stood at 0.1.
For the variant U25C A45G, the self-cleavage came to 0.26.
In the case of U25C A45U it was 0.28.
The value for U25C A45C was 0.18.
For the variant U25G U48C, the self-cleavage turned out to be 0.36.
Regarding U26A C27G, the self-cleavage was determined as 0.12.
In the case of U26A C27A it was 0.31; in that of U25C A56U, 0.24; in that of U25C A56G, 0.25.
Turning to U25C A56C, the self-cleavage amounted to 0.25.
The value for U25C G52U was 0.29; that for U25C G52C was 0.58; that for U25C G52A was 0.26.
With U26A G30U, the self-cleavage is 0.19.
The value for U26A G30C was 0.24.
In the case of U25A U49C it was 0.22; in that of U25A U49G, 0.19.
In the case of U25A U49A it was 0.19; in that of U25G C27U, 0.39.
Turning to U25G A56G, the self-cleavage was 0.4.
In the case of U26A C79A it was 1.07; in that of U26A C79U, 1.05.
In the case of U26A C34G it was 0.41; in that of U26A C34U, 0.29; in that of U25G U74G, 0.37.
In the case of U25G U74C it was 0.52.
With U26A C62G, the self-cleavage is 0.2.
In the case of U26A C62A it was 0.25.
The value for U26A C62U was 0.21; that for U25A G52C was 0.27; that for U25A G52A was 0.22.
U26A C44U: the self-cleavage stood at 0.46.
With U26A C44G, the self-cleavage stood at 0.94.
The value for U25G G73A was 0.51; that for U25G G70C was 0.33; that for U25G U26C was 0.33.
The value for U25C C38U was 0.68.
The value for U25C C38A was 0.18.
For U25C C38G, the self-cleavage amounted to 0.19.
In the case of U25C U51C it was 0.26.
In the case of U25C U51G it was 0.12.
For U25C U51A, the self-cleavage turned out to be 0.27.
In the case of U25C C27A it was 0.41; in that of U25C C27U, 0.36.
U25C U66G: the self-cleavage is 0.69.
In the case of U25C U66A it was 0.35; in that of U25C U66C, 0.27; in that of U25C C32U, 0.14.
The value for U25C C32A was 0.22; that for U25G U67G was 0.19; that for U25G U67A was 0.22.
In the case of U25C G42U it was 0.5; in that of U25C G42C, 0.33; in that of U26A C32A, 0.16.
On to U26A C32G, for which the self-cleavage amounted to 0.13.
The value for U25A U26G was 0.29.
In the case of U25A U26A it was 0.39.
In the case of U25A U26C it was 0.28; in that of U25C G73U, 0.43; in that of U25C A75G, 0.23.
Regarding U25C A75C, the self-cleavage amounted to 0.35.
In the case of U25C A75U it was 0.34; in that of U25A G46A, 0.15.
The value for U25C G33C was 0.16.
The value for U25C G33U was 0.15.
For U25C G33A, the self-cleavage came to 0.25.
With U25A G63A, the self-cleavage was 0.28.
The value for U25A G63U was 0.2; that for U26A G63U was 0.87; that for U26A G63A was 0.74.
In the case of U25G C37U it was 0.09; in that of U25C U43G, 0.35; in that of U25C U43C, 0.3.
U25C U43A: the self-cleavage came to 0.34.
The value for U25C U72C was 0.28; that for U25C U72G was 0.26.
In the case of U25C U72A it was 0.22.
U25C C68A: the self-cleavage turned out to be 0.24.
In the case of U25G A57G it was 0.16; in that of U25C A65G, 0.3.
Consider U25C A65C, for which the self-cleavage is 0.45.
The value for U25C A65U was 0.28; that for U25G U31A was 0.23; that for U25G U31C was 0.19.
The value for U25G C34U was 0.15; that for U25G A75G was 0.29.
For U26A C40G, the self-cleavage is 0.17.
Take U26A C40U: the self-cleavage was 0.59.
U26A C40A: the self-cleavage stood at 0.25.
The value for U25G C32A was 0.26.
In the case of U25A G70U it was 0.06; in that of U25A G70C, 0.07; in that of U25C G63C, 0.26.
The value for U25C G63U was 0.3; that for U25C G63A was 0.37.
U25A G33C: the self-cleavage was determined as 0.19.
The value for U25C G61U was 0.17; that for U25C G61A was 0.15.
The value for U25C G61C was 0.15; that for U25C G70C was 0.11.
The value for U25C G70A was 0.3; that for U25C C29G was 0.24; that for U25C C29A was 0.3.
For U25C C29U, the self-cleavage came to 0.47.
The value for U26A C29G was 0.3.
The value for U25C C71G was 0.1.
The value for U25C C71A was 0.13; that for U25C C71U was 0.1; that for U25G was 0.31.
Turning to U25C, the self-cleavage is 0.29.
The value for U25G C71G was 0.16; that for U25C C59U was 0.28; that for U25C C59A was 0.16.
In the case of U25C A64U it was 0.26; in that of U25C A64C, 0.45; in that of U25C A64G, 0.3.
Consider U25C U48C, for which the self-cleavage is 0.26.
Take U25C U48A: the self-cleavage was determined as 0.31.
The value for U25C U48G was 0.39.
As to U25A U67C, the self-cleavage turned out to be 0.19.
In the case of U25A U67A it was 0.46; in that of U26A G33A, 0.17.
The value for U26A G33U was 0.1; that for U25C U74C was 0.35; that for U25C U74A was 0.42.
Turning to U26A G55U, the self-cleavage came to 0.77.
For the variant U26A A45U, the self-cleavage amounted to 0.42.
For U26A A45C, the self-cleavage amounted to 0.21.
In the case of U26A A45G it was 0.69.
In the case of U25G U80C it was 0.37; in that of U25G U69C, 0.24.
In the case of U25G U69A it was 0.15; in that of U25G U49C, 0.45.
U25G U49A: the self-cleavage was found to be 0.26.
In the case of U25C U69C it was 0.22.
The value for U25C U69G was 0.21; that for U25C U69A was 0.22; that for U26A C81G was 1.1.
For U25A U60A, the self-cleavage came out at 0.29.
The value for U25A U60C was 0.21.
The value for U26A A35C was 0.65; that for U26A A35G was 1.29; that for U26A A35U was 0.38.
In the case of U26A A56C it was 0.49; in that of U26A A56U, 0.4; in that of U26A A56G, 0.68.
For U25A U41C, the self-cleavage came to 0.28.
As for U25A U41A, the self-cleavage is 0.44.
In the case of U25A U41G it was 0.22.
In the case of U25C A35G it was 0.31; in that of U25C A35U, 0.24.
The value for U25A U69C was 0.25; that for U25A U69A was 0.27; that for U25C A28C was 0.15.
Turning to U25C A28U, the self-cleavage came out at 0.25.
In the case of U25C A28G it was 0.28; in that of U25C C62G, 0.18; in that of U25C C62U, 0.11.
In the case of U25C U78A it was 0.25; in that of U25C U78C, 0.24.
In the case of U25C U78G it was 0.22; in that of U26A A57G, 0.78; in that of U26A A57U, 0.62.
On to U26A C71U, for which the self-cleavage came to 0.24.
The value for U26A C71A was 0.2; that for U25G U66C was 0.23.
As to U25A G53A, the self-cleavage amounted to 0.28.

These data come from the RNAGym collection of RNA variant scans (doi:10.1093/nar/gkz1192).
